This is an account of results in patent publication US20140298494A1, “ANIMAL MODEL OF AUTISM” (Beth Israel Deaconess Medical Center, Inc., priority 2011, published 2014).

One series relates to non-NMDA receptor. The series is described as follows: inhibition of minimal-stimulation single fiber EPSC amplitude by γ-DGG in layer 2/3 barrel cortex pyramidal neurons (brain slices). In kind it is cell-based, mouse. The note with it: γ-DGG 300 μM; Ube3a (2×) transgenic vs wild-type neurons; P=0.0127, n=7-8. Here is the method:
The vesicle glutamate content was estimated by the relative inhibition of mean single fiber EPSC amplitude by the fast off-rate, non-NMDA receptor blocker γ-DGG (300 μM). The higher the percentage inhibition by γ-DGG, the lower the concentration of synaptic glutamate. Detailed protocols are available in the Extended Experimental Procedures.
The vesicle glutamate content was estimated by the relative inhibition of mean single fiber EPSC amplitude by the fast off-rate, non-NMDA receptor blocker γ-DGG (300 μM). The higher the percentage inhibition by γ-DGG, the lower the concentration of synaptic glutamate (see ref. 21). To selectively stimulate a single fiber in layer 2/3 of the barrel cortex, minimal stimuli were delivered through ACSF-filled bipolar glass electrodes pulled from 2.0 mm OD dual barrel theta capillary glass (Warner Instruments). The tip of the stimulating electrodes is about 2 μm. To establish a minimal stimulation, we first sought for the highest stimulus that gave all failures. […] To acquire a reasonable number of EPSCs from 40-100 trials in both baseline and γ-DGG conditions at 0.3 Hz, we adjusted the stimulation intensity to give about 10% failures (WT: 9.7±2.4%, n=8; 1×: 9.7±3.4%, n=8; 2×: 11.6±4.6%, […]; F(2, 21)=0.106, P=0.90). Under this failure rate, the calculated quantal content was about 2. […]

Series [1] has as its system recombinant Arc.
The test system of series [2] is recombinant Arc. The series is described as follows: in vitro target protein degradation (ubiquitination) assay with immunoprecipitated Ube3a-FLAG. The format is biochemical. The note with it: FLAG antibody immunoprecipitate from Tg cortical lysate; control Wt 1.26±0.04; P=0.01; n=3 independent in vitro assays. Here is the method: Ube3a expression was confirmed by western blot of cortical lysates using both anti-FLAG M2 antibody (Sigma) and anti-Ube3a (BD Biosciences). The ubiquitin ligase activity of Ube3a was assayed by an in vitro target protein degradation assay. Ube3a was immunoprecipitated using anti-FLAG M2 antibodies and protein G magnetic beads (NEB) and eluted in non-denaturing conditions using a 3× FLAG peptide (Sigma). 1 μg of recombinant ARC (BD Biosciences) was added to 10 μl of immunoprecipitated Ube3a in the presence of 50 ng E1 and 100 ng UbcH7 enzymes and 4 μg HA-ubiquitin (Boston Bioproducts) as in (19). Western blots were probed with anti-ARC (Santa Cruz) and quantified using ImageJ (NIH). Detailed protocols are available in the Extended Experimental Procedures.
Cortical lysates were prepared in PBS with 1% TritonX-100 and protease inhibitors, incubated with 4 μg of anti-FLAG antibodies overnight, and with 50 μl of protein G magnetic beads (NEB) for immunoprecipitation (IP). Beads were washed 5× with PBS and Ube3a-FLAG was eluted with 3× FLAG peptide (Sigma) in 100 μl PBS, and IP success was confirmed by western blot. […]

“Also recorded” adds a separate entry of the source.

In the case of `N[C@H](CCC(=O)NCC(=O)O)C(=O)O` [γDGG, γ-D-glutamylglycine], the “Reduction of EPSC amplitude by γ-DGG” value in the series on non-NMDA receptor is “reduce EPSC amplitude to a greater extent in Ube3a (2×) transgenic than in wild-type neurons; also recorded: increased γDGG inhibition in Ube3a transgenic mice”.
For “FLAG-tagged full length Ube3a (transgenic mouse Ube3a with C-terminal 3×FLAG tag, immunoprecipitated from cortical lysates of transgenic mice)”, the “in vitro target protein degradation assay (Arc on western blot probed with anti-ARC, quantified with ImageJ)” value in the series on recombinant Arc [1] is listed as “mean±SEM Wt: 1.26±0.04 vs. Tg: 0.58±0.16; P=0.01 by t test; n=3 independent in vitro assays”.

B1: transgenic Ube3a: full-length FLAG-tagged transgenic Ube3a ubiquitin ligase immunoprecipitated from transgenic mouse cortical lysate (protein, UniProt O08759 1-870, looked up)
chain: MATACKRSPGESQSEDIEASRMKRAAAKHLIERYYHQLTEGCGNEACTNEFCASCPTFLRMDNNAAAIKALELYKINAKLCDPHPSKKGASSAYLENSKGASNNSEIKMNKKEGKDFKDVIYLTEEKVYEIYEFCRESEDYSPLIRVIGRIFSSAEALVLSFRKVKQHTKEELKSLQEKDEDKDEDEKEKAACSAAAMEEDSEASSSRMGDSSQGDNNVQKLGPDDVTVDIDAIRRVYSSLLANEKLETAFLNALVYLSPNVECDLTYHNVYTRDPNYLNLFIIVMENSNLHSPEYLEMALPLFCKAMCKLPLEAQGKLIRLWSKYSADQIRRMMETFQQLITYKVISNEFNSRNLVNDDDAIVAASKCLKMVYYANVVGGDVDTNHNEEDDEEPIPESSELTLQELLGDERRNKKGPRVDPLETELGVKTLDCRKPLISFEEFINEPLNDVLEMDKDYTFFKVETENKFSFMTCPFILNAVTKNLGLYYDNRIRMYSERRITVLYSLVQGQQLNPYLRLKVRRDHIIDDALVRLEMIAMENPADLKKQLYVEFEGEQGVDEGGVSKEFFQLVVEEIFNPDIGMFTYDEATKLFWFNPSSFETEGQFTLIGIVLGLAIYNNCILDVHFPMVVYRKLMGKKGTFRDLGDSHPVLYQSLKDLLEYEGSVEDDMMITFQISQTDLFGNPMMYDLKENGDKIPITNENRKEFVNLYSDYILNKSVEKQFKAFRRGFHMVTNESPLKYLFRPEEIELLICGSRNLDFQALEETTEYDGGYTRESVVIREFWEIVHSFTDEQKRLFLQFTTGTDRAPVGGLGKLKMIIAKNGPDTERLPTSHTCFNVLLLPEYSSKEKLKERLLKAITYAKGFGML
modifications: full-length FLAG tag
notes: full-length FLAG-tagged transgenic Ube3a ubiquitin ligase immunoprecipitated from transgenic mouse cortical lysate
For B1, the “Recombinant Arc level after in vitro degradation (western blot, mean±SEM)” value with recombinant Arc [2] was found to be 0.58±0.16.
